{"source": "paper PMC3137789", "origin": "cited, not measured here", "biological_target": "plexinC1 (Homo sapiens) (UniProt O60486)", "sequence (O60486 35-944)": "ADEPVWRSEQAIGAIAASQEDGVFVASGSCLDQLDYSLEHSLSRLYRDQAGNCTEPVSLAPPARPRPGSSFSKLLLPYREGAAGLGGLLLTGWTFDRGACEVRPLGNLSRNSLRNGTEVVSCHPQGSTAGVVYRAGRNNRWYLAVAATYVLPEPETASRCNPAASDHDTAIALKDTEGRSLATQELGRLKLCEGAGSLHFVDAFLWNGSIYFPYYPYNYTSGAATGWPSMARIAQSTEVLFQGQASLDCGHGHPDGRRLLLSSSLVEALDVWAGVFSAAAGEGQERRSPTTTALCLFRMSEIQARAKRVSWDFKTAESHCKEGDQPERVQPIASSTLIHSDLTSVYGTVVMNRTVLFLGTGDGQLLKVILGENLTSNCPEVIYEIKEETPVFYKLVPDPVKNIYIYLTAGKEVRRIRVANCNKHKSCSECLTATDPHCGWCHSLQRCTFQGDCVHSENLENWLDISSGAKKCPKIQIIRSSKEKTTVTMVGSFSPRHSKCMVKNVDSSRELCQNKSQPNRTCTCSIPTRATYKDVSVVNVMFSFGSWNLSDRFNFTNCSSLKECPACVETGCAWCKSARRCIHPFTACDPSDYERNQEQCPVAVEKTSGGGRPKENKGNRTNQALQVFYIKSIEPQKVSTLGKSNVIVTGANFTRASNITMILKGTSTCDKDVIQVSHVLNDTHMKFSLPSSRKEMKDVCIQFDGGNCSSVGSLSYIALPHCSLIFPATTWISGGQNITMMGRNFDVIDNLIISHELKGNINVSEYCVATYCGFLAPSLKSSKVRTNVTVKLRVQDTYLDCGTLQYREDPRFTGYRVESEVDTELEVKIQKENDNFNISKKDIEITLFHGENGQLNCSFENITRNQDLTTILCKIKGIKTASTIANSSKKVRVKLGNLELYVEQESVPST", "note": "pKd: −log10 of the molar value."}
{"substance": "Sema7A (from UniProt O75326)", "values": [{"measurement": "pKd", "result": 6.52}]}
